US20240122985A1, “ANTIBODIES, COMBINATIONS COMPRISING ANTIBODIES, BIOMARKERS, USES & METHODS” (KYMAB LIMITED, priority 2016, published 2024)
Several values for one entry are separate records, joined by “and”; a condition that tells them apart may be missing. Equal entries are not always repeated.

B1: 2D10 IgG4PE: fully human anti-human OX40L monoclonal antibody, human IgG4-PE; VH Seq ID No:34, VL Seq ID No:48; 2D10-1 to -4 are stable pools (antibody, V domains shown)
VH: EVQLVESGGGLVQPGGSLRLSCAASGFTFSNYAMNWVRQAPGKGLEWVSTISGSGGATRYADSVKGRFTISRDNSRNTVYLQMNSLRVEDTAVFYCTKDRLIMATVRGPYYYGMDVWGQGTTVTVSS
VL: DIQMTQSPSSLSASVGDRVTITCRASQSISSYLNWYQQKPGKAPNLLIYAASSLQSGVPSRFSGSGSETDFTLTISSLQPEDFATYYCQQSHSVSFTFGPGTKVDIK
modifications: human IgG4-PE constant regions; 02D10 - VH Amino Acid Sequence; 02D10 - VL Amino Acid Sequence

Tests used:
[1] = system: human T-cells with allogeneic T-cell-depleted cells; assay: Human mixed lymphocyte reaction (CellTrace Violet); type: cell-based; conditions: KY1005 150 μg/L, 7 days (FIG. 12H)
Method: Human Mixed Lymphocyte Reaction: Human MLRs were performed on unrelated healthy controls. PBMC samples were freshly isolated by Ficoll fractionation, followed by magnetic pan T-cell isolation using the Miltenyi Biotec human pan-T-cell isolation kit. Isolated T-cells were labeled with 2.5 μM CellTrace Violet (Invitrogen) and were co-cultured with irradiated (3500 cGy) on-column T-cell-depleted cell fractions from unrelated allogeneic individuals. MLR cultures were maintained for 7 days at 37° C. in XVivo15 (Lonza) supplemented with 10% FCS, 2 mM glutamine, penicillin-streptomycin and gentamycin and beta-Mercaptoethanol. KY1005 was added to the cultures at day 0 at a dose of 150 μg/L. On Day 7, cells were collected from the cultures, and were stained with antibodies against CD3, CD4, CD8, and then Live/Dead Aqua (Molecular Probes/Invitrogen) was added to exclude dead cells and debris. CellTrace Violet dilution was then measured in CD3^+, Live/Dead Aqua-cells by flow cytometry.

[2] = target: Rhesus monkey OX40L; assay: Surface plasmon resonance, apparent affinity to rhesus OX40L; type: binding, Rhesus (Macaca mulatta); conditions: SPR, 25° C.; CNROR = Cannot resolve off-rate
Method: SPR analysis was carried out using the ProteOn™ XPR36 Array System (BioRad). Anti-mouse IgG (GE Healthcare BR-1008-38) was immobilised on a GLM biosensor surface using amine coupling, the surface was then blocked using 1 M ethanolamine. Test antibodies were captured on this surface and recombinant hOX40L (human and rhesus) were used at a single concentration of 256 nM, binding sensorgrams were double referenced using a buffer injection (i.e. 0 nM) to remove baseline drift and injection artefacts. Apparent affinities for the OX40L-antibody interaction were determined using the 1:1 model inherent to the ProteOn XPR36 analysis software. The assay was run using HBS-EP (Teknova) as running buffer and carried out at 25° C.

[3] = system: peripheral blood or T-cell donor chimerism; assay: Donor chimerism in rhesus HSCT recipients (microsatellite markers); type: in vivo, Rhesus macaque; conditions: per animal
Method: Peripheral blood or T-cell (CD3^+/CD20−) chimerism was determined using divergent donor- and recipient-specific MHC-linked microsatellite markers, by comparing peak heights of the donor- and recipient-specific amplicons (Penedo M C et al, (2005) “Microsateliite typing of the rhesus macaque MHC region”, Imunogenetics 57:198-209).
Flow cytometrically-sorted T-cells (CD3^+/CD20−) were analysed for donor chimerism based on divergent microsatellite markers. Chimerism analysis was performed at the UC Davis veterinary genetics laboratory as previously described (Larsen et al., 2010; Kean et al., 2007).

Chain of Rhesus monkey OX40L (as listed by the source): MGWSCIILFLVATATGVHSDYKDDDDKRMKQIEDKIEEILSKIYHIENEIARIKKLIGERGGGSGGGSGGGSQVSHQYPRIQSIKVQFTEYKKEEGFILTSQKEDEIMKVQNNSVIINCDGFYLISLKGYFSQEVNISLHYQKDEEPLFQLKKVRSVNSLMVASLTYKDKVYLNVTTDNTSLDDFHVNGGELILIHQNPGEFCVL

Molecule	allo-proliferation of human cells in vitro [1]	Apparent Affinity RhsOX40L (nM) [2]	Peak peripheral blood donor chimerism ([3]; 2D10 IgG4PE Rhesus GvHD Study)	Whole Blood Chimerism (%) Day 0 ([3]; Day 0) [%]	Whole Blood Chimerism (%) Day 1 ([3]; Day 1)	Whole Blood Chimerism (%) Day 4 ([3]; Day 4) [%]	Whole Blood Chimerism (%) Day 5 ([3]; Day 5)	Whole Blood Chimerism (%) Day 7 ([3]; Day 7) [%]	Whole Blood Chimerism (%) Day 8 ([3]; Day 8)	Whole Blood Chimerism (%) Day 11 ([3]; Day 11) [%]	Whole Blood Chimerism (%) Day 12 ([3]; Day 12)	Whole Blood Chimerism (%) Day 14 ([3]; Day 14) [%]	Whole Blood Chimerism (%) Day 15 ([3]; Day 15)	Whole Blood Chimerism (%) Day 16 ([3]; Day 16) [%]	Whole Blood Chimerism (%) Day 18 ([3]; Day 18) [%]	Whole Blood Chimerism (%) Day 20 ([3]; Day 20)	Whole Blood Chimerism (%) Day 21 ([3]; Day 21) [%]	Whole Blood Chimerism (%) Day 23 ([3]; Day 23)	Whole Blood Chimerism (%) Day 26 ([3]; Day 26) [%]
KY1005: antibody used for GVHD immunoprophylaxis in NHP, measured by antigen (OX40L) capture assay; not tied to 02D10 in this part	inhibit allo-proliferation of human cells in vitro	–	–	–	–	–	–	–	–	–	–	–	–	–	–	–	–	–	–
B1	–	CNROR	88% and 99% (2×) and 100%	0	16.6% and 5.7% and 22.9%	6.6	91.4% and 66.3% and 31.7% and 68.2%	27.5	98.4% and 97.4% and 66.3% and 82.9%	90.4	98.6% and 99.5% and 82.3% and 92.1%	81.8	99.1% and 99.4% and 88.2% and 97.5%	79.8	19.7	99.2% and 98.4%	0	98.6% and 98.8%	98.7
